Measured values as given in the supplement of paper PMC7877785.
± gives the uncertainty stated by the source.

Assay: self-splicing fitness, log relative to wild type (ln ratio); higher = more splicing; Tetrahymena group I intron in knt gene, E. coli kanamycin selection, DiMSum; sequences stand for … in CUCUCU…GGAGGGAAAAGUUAUCAGGCAUGCACCUGGUAGCUAGUCUUUAAACCAAUAGAUUGCAUCGGUUUAAAAGGCAAGACCGUCAAAUUGCGGGAAAGGGGUCAACAGCCGUUCAGUACCAAGUCUCAGGGGAAACUUUGAGAUGGCCUUGCAAAGGGUAUGGUAAUAAGCUGACGGACAUGGUCCUAACCACGCAGCCAAGUCCUAAGUCAACAGAUCUUCUGUUGAUAUGGAUGCAGUUCACAGACUAAAUGUCGGUCGGGGAAGAUGUAUUCUUCUCAUAAGAUAUAGUCGGACCUCUCCUUAAUGGGAGCUAGCGGAUGAAGUGAUGCAACACUGGAGCCGCUGGGAACUAAUUUGUAUGCGAAAGUAUAUUGAUUAGUUUUGGAGUACUCGUGGUCG
In short: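 Library with all eight P1ex-region intron nucleotides randomised, intron inside the knt kanamycin-resistance gene on pET-22b(+), in E. coli BL21(DE3). Cells grew overnight at 37°C or 30°C on LB agar with or without 25 μg/mL kanamycin (plus 100 μg/mL carbenicillin, 50 μM IPTG, 0.2% rhamnose), in six replicate transformations. Pooled colonies were amplicon-sequenced on Illumina HiSeq 2500. DiMSum fitness is the error-weighted combination of wild-type-normalised replicate fold changes, kanamycin versus none.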

| Sequence | self-splicing fitness (ln) (30 °C) | self-splicing fitness (ln) (37 °C) |
| --- | --- | --- |
| GAAUAGCAAUAUUACGUAGU | -2.61 ± 0.12 | -1.99 ± 0.18 |
| CGAGAGCAAUAUUACGUAUU | -2.53 ± 0.28 | -1.4 ± 0.28 |
| GCCAAGCAAUAUUACGAUUG | -4.04 ± 0.4 | -2.12 ± 0.34 |
| ACUAAGCAAUAUUACGUUUG | -3.62 ± 0.18 | -2.22 ± 0.17 |
| CGGAAGCAAUAUUACGUACU | -0.218 ± 0.071 | -0.296 ± 0.096 |
| AUAUAGCAAUAUUACGGAAA | – | -0.209 ± 0.33 |
| ACUUAGCAAUAUUACGAAGU | -3.91 ± 0.22 | -1.61 ± 0.19 |
| AUGGAGCAAUAUUACGCAAU | -1.33 ± 0.19 | -1.44 ± 0.24 |
| CCGUAGCAAUAUUACGGCGU | -2.57 ± 0.23 | -1.86 ± 0.25 |
| GCCAAGCAAUAUUACGUCUA | -1.15 ± 0.11 | -1.08 ± 0.1 |
| UGUGAGCAAUAUUACGAGUU | -2.72 ± 0.22 | -1.97 ± 0.27 |
| GCGUAGCAAUAUUACGAAUC | -1.05 ± 0.17 | -0.37 ± 0.2 |
| GUGCAGCAAUAUUACGCCCG | -1.69 ± 0.36 | -1.51 ± 0.37 |
| GCGUAGCAAUAUUACGUAGA | -3.35 ± 0.19 | -2.88 ± 0.29 |
| AACCAGCAAUAUUACGAUGC | -1.49 ± 0.076 | -0.673 ± 0.082 |
| UGGAAGCAAUAUUACGGCCG | -0.385 ± 0.18 | -0.0898 ± 0.3 |
| AAACAGCAAUAUUACGUUGA | -2.58 ± 0.094 | -1.23 ± 0.089 |
| CUCAAGCAAUAUUACGUAAC | -4.43 ± 0.19 | -2.08 ± 0.15 |
| AUUUAGCAAUAUUACGUUUG | -3.78 ± 0.21 | -1.25 ± 0.16 |
| AUACAGCAAUAUUACGGUAU | -3.46 ± 0.18 | -2.99 ± 0.2 |

| Sequence | self-splicing fitness (ln) (30 °C) | self-splicing fitness (ln) (37 °C) |
| --- | --- | --- |
| GCUCAGCAAUAUUACGGUCG | -2.35 ± 0.14 | -0.924 ± 0.14 |
| CAAGAGCAAUAUUACGAUCA | -1.72 ± 0.16 | -2.02 ± 0.24 |
| AUCGAGCAAUAUUACGUACA | -3.78 ± 0.33 | -1.72 ± 0.16 |
| UUAUAGCAAUAUUACGAUCA | -0.672 ± 0.15 | -0.403 ± 0.17 |
| GUCUAGCAAUAUUACGCAUA | -1.08 ± 0.14 | -0.121 ± 0.12 |
| CUCGAGCAAUAUUACGUUUC | -1.78 ± 0.29 | -1.25 ± 0.25 |
| UACGAGCAAUAUUACGUCAU | -4.92 ± 0.45 | -3.92 ± 0.39 |
| GCUGAGCAAUAUUACGCGCA | -1.72 ± 0.4 | – |
| CUCCAGCAAUAUUACGAGAA | -2.14 ± 0.38 | -1.91 ± 0.31 |
| GAUCAGCAAUAUUACGAUUU | -0.286 ± 0.085 | 0.0945 ± 0.1 |
| AUGCAGCAAUAUUACGGGUA | -1.56 ± 0.13 | -1.12 ± 0.14 |
| AUAGAGCAAUAUUACGUGUU | -3.73 ± 0.19 | -2.38 ± 0.18 |
| CUAAAGCAAUAUUACGAAAA | -3.34 ± 0.41 | -2.19 ± 0.35 |
| AGGAAGCAAUAUUACGGAGG | -2.71 ± 0.34 | -2.28 ± 0.35 |
| GGUAAGCAAUAUUACGUUUG | – | -2.56 ± 0.21 |
| CAUCAGCAAUAUUACGCGGU | -3.35 ± 0.18 | -2.39 ± 0.22 |
| GUCGAGCAAUAUUACGCGGU | – | -1.94 ± 0.32 |
| GUAGAGCAAUAUUACGCAUC | -1.49 ± 0.13 | -1.37 ± 0.15 |
| UGAAAGCAAUAUUACGUUUA | -0.985 ± 0.066 | -0.471 ± 0.074 |
